Measured values published in the Immune Epitope Database (IEDB).

Experiments:
Assay in all cases: IEDB peptide-MHC binding, purified MHC/competitive/radioactivity; ≥ and ≤ were set here for values at or beyond the usual limits of such assays
[1] = biological target: HLA-A*02:01
[2] = biological target: HLA-A*02:02
[3] = biological target: HLA-A*02:03
[4] = biological target: HLA-A*02:06
[5] = biological target: HLA-A*68:02
[6] = source organism: Vaccinia virus WR
[7] = source organism: Hepacivirus hominis
[8] = source organism: Mammarenavirus choriomeningitidis

Sequence	IC50 [1, 6] [nM]	IC50 [2, 6] [nM]	IC50 [3, 6] [nM]	IC50 [4, 6] [nM]	IC50 [5, 6] [nM]	further results
DQLVFNSISA	527	206	289	759	4130	
AMLKSKNINI	175	1650	223	200	4740	
MLPESDLDKV	11	3.2	1770	4.4	196	
FISIYSRPKI	135	23	102	396	592	
SMMSFSAAL						IC50 [1, 7]: 13 nM; IC50 [2, 7]: 5.1 nM; IC50 [3, 7]: 15 nM; IC50 [4, 7]: 106 nM; IC50 [5, 7]: 493 nM
IALALEQYGI	3020	980	4920	1130	2900	
NLDDVYSYI	3.8	0.72	96	92	1030	
FTILEYLYIM	95	355	3200	40	2170	
TVLTSVDIET	1260	1720	915	961	2990	
HLMSDNPKA	45	57	279	523	1100	
RIITILQDIV	526	595	209	95	290	
LIVNSVLLFL						IC50 ([1]; source organism: SARS-CoV1): 27 nM; IC50 ([2]; source organism: SARS-CoV1): 3.7 nM; IC50 ([3]; source organism: SARS-CoV1): 90 nM; IC50 ([4]; source organism: SARS-CoV1): 11 nM; IC50 ([5]; source organism: SARS-CoV1): 169 nM
RVTTELNIV	818	2460	116	46	481	
YTISSESLV	1060	522	38	54	3.3	
KLLIAILGPL						IC50 [1, 7]: 67 nM; IC50 [2, 7]: 12 nM; IC50 [3, 7]: 5.9 nM; IC50 [4, 7]: 12 nM; IC50 [5, 7]: 4230 nM
AIILASFSA						IC50 ([1]; source organism: SARS-CoV1): 274 nM; IC50 ([2]; source organism: SARS-CoV1): 201 nM; IC50 ([3]; source organism: SARS-CoV1): 176 nM; IC50 ([4]; source organism: SARS-CoV1): 82 nM; IC50 ([5]; source organism: SARS-CoV1): 870 nM
CTINVNSLA	1040	1040	1610	248	13	
FLPQIGGEA	1360	21	121	96	149	
QIFNIISYII	355	288	206	743	332	
AITLVVISVI	494	406	786	2000	2380	
IASILSLETV	424	234	93	47	200	
ETLPELNLSL	1100	52	130	134	648	
FQESFYEDIA	4840	2560	555	303	2910	
ELKHGLLDSI	738	540	55	1340	266	

Sequence	IC50 [1, 6] [nM]	IC50 [2, 6] [nM]	IC50 [3, 6] [nM]	IC50 [4, 6] [nM]	IC50 [5, 6] [nM]	further results
LMSFTILCLV						IC50 ([1]; source organism: SARS-CoV1): 8.4 nM; IC50 ([2]; source organism: SARS-CoV1): 0.34 nM; IC50 ([3]; source organism: SARS-CoV1): 91 nM; IC50 ([4]; source organism: SARS-CoV1): 40 nM; IC50 ([5]; source organism: SARS-CoV1): 40 nM
AISYCRAFI	169	17	149	146	98	
LVKDESIQL	3150	122	649	1400	1470	
MQKFTILEYL	3730	164	279	909	3730	
YVHEGVSYEV	83	13	71	9.1	14	
ALINLVQYRI	30	8.3	82	417	1770	
TLLNETAKV	28	246	83	11	1670	
NVLAWLYAA						IC50 ([1]; source organism: SARS-CoV1): 9.2 nM; IC50 ([2]; source organism: SARS-CoV1): 7.3 nM; IC50 ([3]; source organism: SARS-CoV1): 15 nM; IC50 ([4]; source organism: SARS-CoV1): 1.6 nM; IC50 ([5]; source organism: SARS-CoV1): 39 nM
LTNAISSRV	916	146	19	145	16	
YQCGHYTHI						IC50 ([1]; source organism: SARS-CoV1): 20 nM; IC50 ([2]; source organism: SARS-CoV1): 72 nM; IC50 ([3]; source organism: SARS-CoV1): 15 nM; IC50 ([4]; source organism: SARS-CoV1): 9.2 nM; IC50 ([5]; source organism: SARS-CoV1): 2920 nM
NTIAVITETI	108	50	56	784	2.1	
TICLKNEGV	547	494	120	311	5.8	
VLMTHFFSVL						IC50 [1, 7]: 114 nM; IC50 [2, 7]: 62 nM; IC50 [3, 7]: 21 nM; IC50 [4, 7]: 112 nM; IC50 [5, 7]: 4690 nM
YIALCKVTV	15	12	24	19	48	
YTLLGCWSFV						IC50 [1, 7]: 435 nM; IC50 [2, 7]: 555 nM; IC50 [3, 7]: 169 nM; IC50 [4, 7]: 146 nM; IC50 [5, 7]: 182 nM
NMLDDFSAGA	190	308	161	242	2600	
QIMECSRML	103	620	1380	948	1400	
PMSRLFMDEI	4020	1930	726	4370	1360	
SIFVSTMPV	40	37	6.6	82	10	
NMLRIMASL						IC50 ([1]; source organism: SARS-CoV1): 68 nM; IC50 ([2]; source organism: SARS-CoV1): 3.4 nM; IC50 ([3]; source organism: SARS-CoV1): 38 nM; IC50 ([4]; source organism: SARS-CoV1): 50 nM; IC50 ([5]; source organism: SARS-CoV1): 1310 nM
FMRDEVSFSV						IC50 [1, 7]: 4 nM; IC50 [2, 7]: 2.2 nM; IC50 [3, 7]: 2.7 nM; IC50 [4, 7]: 10 nM; IC50 [5, 7]: 2950 nM
MLLTFLTSL						IC50 ([1]; source organism: SARS-CoV1): 1.6 nM; IC50 ([2]; source organism: SARS-CoV1): 6.2 nM; IC50 ([3]; source organism: SARS-CoV1): 4.8 nM; IC50 ([4]; source organism: SARS-CoV1): 3.6 nM; IC50 ([5]; source organism: SARS-CoV1): 923 nM
NILMDSIFV	179	252	223	170	147	
AILHNIYRL	48	106	814	44	2570	

Sequence	IC50 [1, 6] [nM]	IC50 [2, 6] [nM]	IC50 [3, 6] [nM]	IC50 [4, 6] [nM]	IC50 [5, 6] [nM]	further results
VITYCLVTHM	1320	478	582	2620	387	
ALVSDCASTI	72	94	52	240	530	
MIHKTYIDV	1920	1400	15	126	269	
NTDHPLSINV	307	388	583	1.6	0.67	
YSMAGNWAKV						IC50 [1, 7]: 175 nM; IC50 [2, 7]: 75 nM; IC50 [3, 7]: 17 nM; IC50 [4, 7]: 425 nM; IC50 [5, 7]: 28 nM
YIFFASFYYI						IC50 ([1]; source organism: SARS-CoV1): 15 nM; IC50 ([2]; source organism: SARS-CoV1): 0.46 nM; IC50 ([3]; source organism: SARS-CoV1): 60 nM; IC50 ([4]; source organism: SARS-CoV1): 0.8 nM; IC50 ([5]; source organism: SARS-CoV1): 2.2 nM
SMGNTLTCYV						IC50 [1, 7]: 100 nM; IC50 [2, 7]: 44 nM; IC50 [3, 7]: 39 nM; IC50 [4, 7]: 205 nM; IC50 [5, 7]: 2430 nM
TTIGTIAGGV	978	741	43	84	0.2	
CTMERTNDL	345	36	25	96	103	
GIYNCCESNI	331	68	140	290	3800	
QIFNIISYI	15	111	15	1.8	6.4	
TLLGCWSFV						IC50 [1, 7]: 30 nM; IC50 [2, 7]: 87 nM; IC50 [3, 7]: 41 nM; IC50 [4, 7]: 134 nM; IC50 [5, 7]: 1780 nM
KLIEYSDFA						IC50 ([1]; source organism: SARS-CoV1): 0.54 nM; IC50 ([2]; source organism: SARS-CoV1): 0.095 nM; IC50 ([3]; source organism: SARS-CoV1): 0.53 nM; IC50 ([4]; source organism: SARS-CoV1): 0.71 nM; IC50 ([5]; source organism: SARS-CoV1): 10 nM
CIVAAVIIMA	1900	1130	619	733	1.3	
IMSMMNITRL	284	62	106	585	119	
TIDKSSPLYI	1900	387	12	1820	1550	
IIAVFDSKL	1760	44	107	99	2320	
RMVSLVTSFL						IC50 ([1]; source organism: SARS-CoV1): 108 nM; IC50 ([2]; source organism: SARS-CoV1): 1.7 nM; IC50 ([3]; source organism: SARS-CoV1): 12 nM; IC50 ([4]; source organism: SARS-CoV1): 53 nM; IC50 ([5]; source organism: SARS-CoV1): 6.3 nM
DLNIFMTLV	1120	1910	556	2190	192	
SISSVLTIL	26	1.2	4	110	16	
LMDCIIFES						IC50 [1, 8]: 99 nM; IC50 [2, 8]: 30 nM; IC50 [3, 8]: 825 nM; IC50 [4, 8]: 300 nM; IC50 [5, 8]: 425 nM
FTNSQIFNII	1570	143	457	1200	16	
